According to the supplement of paper PMC10201428:
± gives the standard deviation of the averaged measurements.

Key:
[1] = system: VchCAST RNA-guided transposition machinery (E. coli BL21(DE3) host, lacZ target); experiment: relative integration efficiency (T-LR orientation) vs wild-type transposon end (log2 (normalized fold change)); transposon end mutated: right end (5 bp flank + 75 bp right end); higher = more efficient transposition
In short: (§1)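 In E. coli BL21(DE3), a T7-driven effector plasmid was paired with a pUC57 mini-transposon donor containing 1549 left-end or 1849 right-end barcoded transposon variants. Cells grew on plates with 0.1 mM IPTG at 37°C for 18 h. Relative integration efficiency was derived from Illumina reads of genomic integration junctions against input plasmids, as a log-transformed output/input barcode fold change normalised to reference barcodes.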

[2] = system: VchCAST RNA-guided transposition machinery (E. coli BL21(DE3) host, lacZ target); experiment: relative integration efficiency (T-RL orientation) vs wild-type transposon end (log2 (normalized fold change)); transposon end mutated: right end (5 bp flank + 75 bp right end); higher = more efficient transposition
In short: as §1

| Sequence | relative integration efficiency (log2) [1] | relative integration efficiency (log2) [2] |
| --- | --- | --- |
| ACATTTGTTGAATCAACCATAAAATGATAATTACACCCATAAATTGATAATTATCACACCCATAAATTGATATTGCCTCTGATCATAGTCAGACCAACATTGCTACGACCCGTATTCGCACCGACAC | 0.00973 ± 0.13 | 0.38 ± 0.14 |
| ACATTTGTTGAATGTACCATAAAATGATAATTACACCCATAAATTGATAATTATCACACCCATAAATTGATATTGCCTCTGATCATAGTCAGACCAACATTGCTACGACCCGTATTCGCACCGACAC | -1.92 ± 0.32 | -0.836 ± 0.071 |
| ACATTTGTTGACAACCATAAAATGATAATTACACCCATAAATTGATAATTATCACACCCATAAATTGATATTGCCTCTGATCATAGTCAGACCAACATTGCTACGACCCGTATTCGCACCGACACTG | -6.81 ± 1.7 | -7.09 ± 0.12 |
| ACATTTGTTGAGCACACCATAAAATGATAATTACACCCATAAATTGATAATTATCACACCCATAAATTGATATTGCCTCTGATCATAGTCAGACCAACATTGCTACGACCCGTATTCGCACCGACAC | -1.83 ± 0.7 | -0.523 ± 0.031 |
| ACATTTGTTGAGCCAACCATAAAATGATAATTACACCCATAAATTGATAATTATCACACCCATAAATTGATATTGCCTCTGATCATAGTCAGACCAACATTGCTACGACCCGTATTCGCACCGACAC | -0.934 ± 0.11 | -0.297 ± 0.0032 |
| ACATTTGTTGATAAAACCATAAAATGATAATTAAACCCATAAATTGATAATTATCAAACCCATAAATTGATATTGCCTCTGATCATAGTCAGACCAACATTGCTACGACCCGTATTCGCACCGACAC | -0.129 ± 0.36 | -0.472 ± 0.18 |
| ACATTTGTTGATAAAACCATAAAATGATAATTAGACCCATAAATTGATAATTATCACACCCATAAATTGATATTGCCTCTGATCATAGTCAGACCAACATTGCTACGACCCGTATTCGCACCGACAC | -1.02 ± 0.36 | -1.09 ± 0.15 |
| ACATTTGTTGATAAAACCATAAAATGATTATTACACCCATAAATTGATAATTATCACACCCATAAATTGATATTGCCTCTGATCATAGTCAGACCAACATTGCTACGACCCGTATTCGCACCGACAC | -0.755 ± 0.22 | -1.05 ± 0.087 |
| ACATTTGTTGATAAAACCATAAAATGATTATTAGAAACCATAATCTGAAATTATCACACCCATAAATTGATATTGCCTCTGATCATAGTCAGACCAACATTGCTACGACCCGTATTCGCACCGACAC | -2.22 ± 0.34 | -3.26 ± 0.065 |
| ACATTTGTTGATAAAACCATAAAATGATTTTAAGAAACCATAATCTGAAATAATCACACCCATAAATTGATATTGCCTCTGATCATAGTCAGACCAACATTGCTACGACCCGTATTCGCACCGACAC | -1.78 ± 0.24 | -3.13 ± 0.069 |
| ACATTTGTTGATAAAACCATAAAATGATTTTTAGAAACCATAATCTGAAATTATCACACCCATAAATTGATATTGCCTCTGATCATAGTCAGACCAACATTGCTACGACCCGTATTCGCACCGACAC | -2.56 ± 0.33 | -2.97 ± 0.17 |
| ACATTTGTTGATAAAACCATACGTTGATTTTAAGAAACCATACGCTGAAATAATCACACCCATAAATTGATATTGCCTCTGATCATAGTCAGACCAACATTGCTACGACCCGTATTCGCACCGACAC | -3.87 ± 0.6 | -6.06 ± 0.18 |
| ACATTTGTTGATAAAACCATACGTTGATTTTACCACCCATAAATTGATAATTATCACACCCATAAATTGATATTGCCTCTGATCATAGTCAGACCAACATTGCTACGACCCGTATTCGCACCGACAC | -2.98 ± 0.21 | -2.65 ± 0.17 |
| ACATTTGTTGATAAAACCATACGTTGATTTTACGAAACCATACGCTGAAATAATCACACCCATAAATTGATATTGCCTCTGATCATAGTCAGACCAACATTGCTACGACCCGTATTCGCACCGACAC | -3.87 ± 1.2 | -5.63 ± 0.18 |
| ACATTTGTTGATAACACCATAAAATGATAATTACACCCATAAATTGATAATTATCACACCCATAAATTGATATTGCCTCTGATCATAGTCAGACCAACATTGCTACGACCCGTATTCGCACCGACAC | -0.747 ± 0.13 | -0.41 ± 0.018 |
| ACATTTGTTGATAACCAACGCCCCGTCGCCGGCACAAACGCCCGGTCGCCGGCTCAACAAACGCCCGGTCGCGGTACTCTGATCATAGTCAGACCAACATTGCTACGACCCGTATTCGCACCGACAC | -6.65 ± 2 | -8.29 ± 1.1 |
| ACATTTGTTGATAACCAACGCCCCGTCGCCGGCACAAACGCCCGGTCGCCGGCTCACACCCATAAATTGATATTGCCTCTGATCATAGTCAGACCAACATTGCTACGACCCGTATTCGCACCGACAC | < -10 | -7.79 ± 0.73 |
| ACATTTGTTGATAACCAACGCCCCGTCGCCGGCCACCCATAAATTGATAATTATCAACAAACGCCCGGTCGCGGTACTCTGATCATAGTCAGACCAACATTGCTACGACCCGTATTCGCACCGACAC | -3.55 ± 0.48 | -7.3 ± 0.31 |
| ACATTTGTTGATAACCACATAAAATGATAATTACACCCATAAATTGATAATTATCACACCCATAAATTGATATTGCCTCTGATCATAGTCAGACCAACATTGCTACGACCCGTATTCGCACCGACAC | -1.28 ± 0.093 | -0.808 ± 0.095 |
| ACATTTGTTGATACAAAAATAAAATGATAATTACACCCATAAATTGATAATTATCACACCCATAAATTGATATTGCCTCTGATCATAGTCAGACCAACATTGCTACGACCCGTATTCGCACCGACAC | -0.268 ± 0.48 | -0.328 ± 0.18 |
| ACATTTGTTGATACAAAACGAAAATGATAATTACACCCATAAATTGATAATTATCACACCCATAAATTGATATTGCCTCTGATCATAGTCAGACCAACATTGCTACGACCCGTATTCGCACCGACAC | -6.65 ± 0.98 | -3.95 ± 0.13 |
| ACATTTGTTGATACAAAACGCCCCGTCGCCGGCACAAACGCCCGGTCGCCGGCGACACAAACGCCCGGTCGCGGTAAGAGGATCATAGTCAGACCAACATTGCTACGACCCGTATTCGCACCGACAC | -5.49 ± 0.46 | -7.52 ± 1 |
| ACATTTGTTGATACAAACATAAAATGATAATTACACACATAAATTGATAATTATCACACACATAAATTGATATTGCCTCTGATCATAGTCAGACCAACATTGCTACGACCCGTATTCGCACCGACAC | -0.182 ± 0.14 | -1.41 ± 0.22 |
| ACATTTGTTGATACAACAATAAAATGATAATTACACCAATAAATTGATAATTATCACACCAATAAATTGATATTGCCTCTGATCATAGTCAGACCAACATTGCTACGACCCGTATTCGCACCGACAC | -0.547 ± 0.67 | -0.726 ± 0.084 |
| ACATTTGTTGATACAACACGCAAATGATAATTACACCCATAAATTGATAATTATCACACCCATAAATTGATATTGCCTCTGATCATAGTCAGACCAACATTGCTACGACCCGTATTCGCACCGACAC | -4.89 ± 2.5 | -4.368 ± 0.0069 |
| ACATTTGTTGATACAACACTAAAATGATAATTACACCCATAAATTGATAATTATCACACCCATAAATTGATATTGCCTCTGATCATAGTCAGACCAACATTGCTACGACCCGTATTCGCACCGACAC | -2.04 ± 0.74 | -1.85 ± 0.15 |
| ACATTTGTTGATACAACCAAAAAATGATAATTACACCCAAAAATTGATAATTATCACACCCAAAAATTGATATTGCCTCTGATCATAGTCAGACCAACATTGCTACGACCCGTATTCGCACCGACAC | 0.0409 ± 0.087 | -0.669 ± 0.11 |
